Assay results as given in patent publication US20240317840A1 (Novartis, published 2024).
Read-outs that look alike come from different tables or passages of the source.

Assays:
HBsAg AD serotype [1] = molecular target: T1, HBsAg AD serotype (Hepatitis B virus); test: SPR Biacore T200, HBsAg particles immobilized, antibody as analyte, 1:1 fit;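 also: Anti-HBsAg antibodies assessed for binding against both major HBsAg serotypes, AY and AD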
T1 construct: also called HBsAg serotype AD
Experimental: (§1) Binding affinity interaction (KD) of the anti-HBsAg antibodies with the two major serotypes of HBsAg, AY and AD, was determined utilizing surface plasma resonance (SPR) technology.

HBsAg AY serotype [2] = molecular target: T2, HBsAg AY serotype (Hepatitis B virus); test: as above
T2 construct: also called HBsAg serotype AY
Experimental: as §1

[3] = molecular target: HBsAg of HBV genotype D, serotype ayw (Hepatitis B virus); test: cell-based or functional assay
[4] = molecular target: HBsAg clinical mutation T126S (Hepatitis B virus); test: sandwich ELISA, mutant HBsAg from cell supernatant captured on horse polyclonal anti-HBsAg, antibody titrated, absorbance 450 nm
[5] = molecular target: HBsAg clinical mutation M133L (Hepatitis B virus); test: as above
[6] = molecular target: T3, HBsAg of HBV genotype A (AY934772) (Hepatitis B virus); test: sandwich ELISA, captured HBsAg from culture supernatant
T3 construct: captured from supernatant by horse polyclonal anti-HBsAg
Experimental: (§2) The binding of anti-HBsAg antibodies to the 4 major genotypes (A-D) of HBV were analyzed by sandwich ELISA.

[7] = molecular target: HBsAg of HBV genotype B (AF 121245) (Hepatitis B virus); test: as above
Experimental: as §2

[8] = molecular target: HBsAg of HBV genotype C (DQ087960) (Hepatitis B virus); test: as above
Experimental: as §2

[9] = molecular target: HBsAg clinical mutation T126S (Hepatitis B virus); test: sandwich ELISA, captured mutant HBsAg from culture supernatant;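 also: Anti-HBsAg antibodies tested for binding to mutant HBsAg secreted by stably transfected cell lines, supernatant incubated 1 h on antibody-coated plates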
Experimental: (§3) The binding of anti-HBsAg antibodies to 4 well characterized vaccine and/or HBsAg clinical mutations of HBsAg (G145R, D144A, T126S, M133L) were analyzed by sandwich ELISA. […] Supernatant collected from HBsAg cell-culture derived clinical mutation stables (G145R, D144A, T126S, M133L) was allowed to bind antibody coated plates for 1 hour.

[10] = molecular target: HBsAg clinical mutation G145R (Hepatitis B virus); test: as above
Experimental: as §3

[11] = molecular target: HBsAg clinical mutation D144A (Hepatitis B virus); test: as above
Experimental: as §3

[12] = molecular target: HBsAg clinical mutation M133L (Hepatitis B virus); test: as above
Experimental: as §3

[13] = molecular target: HBsAg clinical mutation T126S (Hepatitis B virus); test: sandwich ELISA, mutant HBsAg from cell supernatant captured on horse polyclonal anti-HBsAg, antibody titrated, absorbance 450 nm; remark: listed apart in the source
[14] = molecular target: HBsAg clinical mutation D144A (Hepatitis B virus); test: as above
[15] = molecular target: HBsAg clinical mutation T126S (Hepatitis B virus); test: as above; remark: listed apart in the source
[16] = molecular target: HBsAg clinical mutation M133L (Hepatitis B virus); test: as above; remark: listed apart in the source
HBsAg AD serotype [17] = molecular target: T1, HBsAg AD serotype; test: SPR epitope binning; competitor (1st, saturating Ab): HBC34
Experimental: (§4) Epitope binning of anti-HBsAg antibodies with the two major serotypes of HBsAg, AY and AD, was performed utilizing surface plasmon resonance (SPR) technology. […] Each pair of antibodies was tested for blocking one another's binding to their epitope on the antigen by subsequently applying one antibody as first (saturating) followed by the other as second (competing) antibody and vice versa. Saturating antibodies were applied at 500 nM for 120s. Competing antibodies utilized the same conditions but were supplemented with the first antibody at 500 nM to maintain saturation. Binding signals were corrected by subtracting the reference cell signal. Specific binding of the competing antibody in presence of the saturating antibody was calculated by subtracting a saturating antibody plus buffer reference signal. All signals were normalized to 100 RU of immobilized ligand. The specific binding signal obtained from the application as competing antibody was expressed as percentage of the binding signal obtained from the application of the same antibody as saturating (first) antibody, the signal of which was regarded 100% binding.

HBsAg AY serotype [18] = molecular target: T2, HBsAg AY serotype; test: as above
Experimental: as §4

[19] = molecular target: HBsAg clinical mutation T126S (Hepatitis B virus); test: sandwich ELISA, mutant HBsAg from cell supernatant captured on horse polyclonal anti-HBsAg, antibody titrated, absorbance 450 nm; remark: listed apart in the source
[20] = molecular target: HBsAg clinical mutation G145R (Hepatitis B virus); test: as above
[21] = molecular target: HBsAg clinical mutation D144A (Hepatitis B virus); test: as above; remark: listed apart in the source
[22] = molecular target: HBsAg clinical mutation M133L (Hepatitis B virus); test: as above; remark: listed apart in the source
HBsAg AD serotype [23] = molecular target: T1, HBsAg AD serotype; test: SPR epitope binning; competitor (1st, saturating Ab): CR8087
Experimental: as §4

HBsAg AY serotype [24] = molecular target: T2, HBsAg AY serotype; test: as above
Experimental: as §4

[25] = molecular target: HBsAg clinical mutation T126S (Hepatitis B virus); test: sandwich ELISA, mutant HBsAg from cell supernatant captured on horse polyclonal anti-HBsAg, antibody titrated, absorbance 450 nm; remark: listed apart in the source
[26] = molecular target: HBsAg clinical mutation M133L (Hepatitis B virus); test: as above; remark: listed apart in the source
[27] = molecular target: HBsAg clinical mutation T126S (Hepatitis B virus); test: as above; remark: listed apart in the source
[28] = molecular target: HBsAg clinical mutation M133L (Hepatitis B virus); test: as above; remark: listed apart in the source

B1: NOV2603 (antibody, human IgG1, kappa, V domains shown)
VH: QVQLVQSGAEVKKPGASVKVSCKASGYTFTSYYMHWVRQAPGQGLEWMGIISPSGGSTSYAQKFQGRVTMTRDTSTSTVYMELSSLRSEDTAVYYCARDWEGGDPYGYYYAFDYWGQGTLVTVSS
VL: not shown
notes: Full human IgG1 (kappa) expressed in CHO cells
Kd (HBsAg AD serotype [1]): 15.5 nM
Kd (HBsAg AY serotype [2]): 3.1 nM
Virus neutralization EC50 [3]: 0.14 nM
EC50 (read off the curve) [4]: ~0.06 nM
EC50 (read off the curve) [5]: ~0.07 nM
IC50 [6]: 2.3 nM
IC50 [7]: 1.5 nM
IC50 [8]: 3.6 nM
IC50 [9]: 0.06 nM
IC50 [10]: 0.33 nM
IC50 [11]: 1.34 nM
IC50 [12]: 0.072 nM

B2: NOV3212 (antibody, human IgG1, kappa, V domains shown)
VH: QVQLVQSGAEVKKPGASVKVSCKASGYTFTSLEMHWVRQAPGQGLEWMGIIEPSGGSTSYAQKFQGRVTMTRDTSTSTVYMELSSLRSEDTAVYYCARDWEGGDPYGYYYAFDYWGQGTLVTVSS
VL: not shown
notes: as for B1
Kd (HBsAg AD serotype [1]): 1.1 nM
Kd (HBsAg AY serotype [2]): 0.6 nM
Virus neutralization EC50 [3]: 0.11 nM
IC50 [6]: 0.23 nM
IC50 [7]: 0.045 nM
IC50 [8]: 0.068 nM
EC50 (read off the curve) [13]: ~0.02 nM
EC50 (read off the curve) [14]: ~0.1 nM
IC50 [9]: 0.012 nM
IC50 [10]: 0.033 nM
IC50 [11]: 0.079 nM
IC50 [12]: 0.012 nM

B3: NOV3357 (antibody, human IgG1, kappa, V domains shown)
VH: EVQLLESGGGLVQPGGSLRLSCAASGFTFSPHAMSWVRQAPGKGLEWVSAISDSGGSTHYADSVKGRFTISRDNSKNTLYLQMNSLRAEDTAVYYCARDDDGWSGYDYWFDYWGQGTLVTVSS
VL: DIQMTQSPSSLSASVGDRVTITCRASQSISPYLNWYQQKPGKAPKLLIYAADSLQSGVPSRFSGSGSGTDFTLTISSLQPEDFATYYCQQSYKIPLTFGQGTKVEIKR
notes: as for B1
Kd (HBsAg AD serotype [1]): 0.18 nM
Kd (HBsAg AY serotype [2]): 0.11 nM
Virus neutralization EC50 [3]: 0.056 nM
IC50 [6]: 0.03 nM
IC50 [7]: 0.017 nM
IC50 [8]: 0.016 nM
EC50 (read off the curve) [15]: ~0.1 nM
EC50 (read off the curve) [16]: ~0.1 nM
IC50 [9]: 0.22 nM
IC50 [10]: 5.5 nM
IC50 [11]: 2.1 nM
IC50 [12]: 0.67 nM

B4: NOV3540 (antibody, human IgG1, kappa, V domains shown)
VH: EVQLLESGGGLVQPGGSLRLSCAASGFTFSPHAMSWVRQAPGKGLEWVSAISDSGGSTHYADSVKGRFTISRDNSKNTLYLQMNSLRAEDTAVYYCARDDDAWSGYDYWFDYWGQGTLVTVSS
VL: DIQMTQSPSSLSASVGDRVTITCRASQSISPYLNWYQQKPGKAPKLLIYAADSLQSGVPSRFSGSGSGTDFTLTISSLQPEDFATYYCQQSYKIPLTFGQGTKVEIKR
notes: as for B1
binding of second antibody (HBsAg AD serotype [17]): 111 % of its binding as first antibody
binding of second antibody (HBsAg AY serotype [18]): 102 % of its binding as first antibody
Kd (HBsAg AD serotype [1]): 0.39 nM
Kd (HBsAg AY serotype [2]): 0.25 nM
Virus neutralization EC50 [3]: 0.085 nM
IC50 [6]: 0.1 nM
IC50 [7]: 0.059 nM
IC50 [8]: 0.1 nM
EC50 (read off the curve) [19]: ~0.08 nM
EC50 (read off the curve) [20]: ~0.3 nM
EC50 (read off the curve) [21]: ~0.2 nM
EC50 (read off the curve) [22]: ~0.08 nM
binding of second antibody (HBsAg AD serotype [23]): 254 % of its binding as first antibody
binding of second antibody (HBsAg AY serotype [24]): 118 % of its binding as first antibody
IC50 [9]: 0.063 nM
IC50 [10]: 0.25 nM
IC50 [11]: 0.16 nM
IC50 [12]: 0.091 nM

B5: NOV3831 (antibody, human IgG1, lambda, V domains shown)
VH: EMQVLESGGGLVQPGGSLRLSCAASGFTFNNYAMSWVRQVPGKGLEWVSSISGSGGSTYYADSVKGQFTISRDNSKNTLYLQMNSLRAEDTAVYYCAKSSILSGGHARVYGIDVWGQGTTVTVSS
VL: QSALTQPPSVSVAPGQTARITCGGNNIGSQSVHWYQQKPGQAPILVVYDDTDRPSGIPARFSGSSSGSTATLTIGRVEAGDEADYYCQVWDSSSDHVVFGGGTKLTVLS
notes: Full human IgG1 (lambda) expressed in CHO cells
Kd (HBsAg AD serotype [1]): 0.67 nM
Kd (HBsAg AY serotype [2]): 0.59 nM
Virus neutralization EC50 [3]: 0.026 nM
IC50 [6]: 0.69 nM
IC50 [7]: 0.015 nM
IC50 [8]: 0.031 nM
IC50 [9]: 0.0093 nM
IC50 [10]: > 67 nM
IC50 [11]: 3.6 nM
IC50 [12]: 0.0058 nM
EC50 (read off the curve) [25]: ~0.02 nM
EC50 (read off the curve) [26]: ~0.02 nM

B6: NOV3832 (antibody, human IgG1, lambda, V domains shown)
VH: EMQVLESGGGLVQPGGSLRLSCAASGFTFDNYAMSWVRQVPGKGLEWVSSISGSGGSTYYADSVKGQFTISRDNSKNTLYLQMNSLRAEDTAVYYCAKSSILSGGHARVYGIDVWGQGTTVTVSS
VL: QSALTQPPSVSVAPGQTARITCGGNNIGSQSVHWYQQKPGQAPILVVYDDTDRPSGIPARFSGSSSGSTATLTIGRVEAGDEADYYCQVWDSSSDHVVFGGGTKLTVLS
notes: as for B5
EC50 (read off the curve) [27]: ~0.05 nM
EC50 (read off the curve) [28]: ~0.05 nM
binding of second antibody (HBsAg AD serotype [17]): 176 % of its binding as first antibody
binding of second antibody (HBsAg AY serotype [18]): 113 % of its binding as first antibody
Kd (HBsAg AD serotype [1]): 0.22 nM
Kd (HBsAg AY serotype [2]): 0.4 nM
Virus neutralization EC50 [3]: 0.26 nM
IC50 [6]: 0.05 nM
IC50 [7]: 0.02 nM
IC50 [8]: 0.015 nM
binding of second antibody (HBsAg AD serotype [23]): 223 % of its binding as first antibody
binding of second antibody (HBsAg AY serotype [24]): 117 % of its binding as first antibody
IC50 [9]: 0.034 nM
IC50 [10]: > 67 nM
IC50 [11]: 0.99 nM
IC50 [12]: 0.034 nM

B7: NOV3836 (antibody, human IgG1, kappa, V domains shown)
VH: QVQLVESGGGVVQPGRSLRLSCAASGFTFERYGMHWVRQAPGKGLEWVAGIWHEGSHKYYADSLRGRFTISRDNAKNTLDLQLNRLRAEDTSVYYCVRQTNRGRLDDAFDIWGQGTMVTVSS
VL: DIQMTQSPSSLSAAVGDRVTISCRASQTISSYLNWYQQKPGEAPKLLIYAASTLQSGVPSRFGGSGSGTDFTLTISSLQPEDSATYYCQQNYDTLWTFGQGTKVEIKR
Virus neutralization EC50 [3]: 0.017 nM

B8: NOV3834 (antibody, human IgG1, kappa, V domains shown)
VH: QVQLVESGGGVVQPGRSLRLSCAASGFTFNRYGMHWVRQAPGKGLEWVAGIWHDGSHKYYADSLRGRFTISRDNAKNTLDLQLNRLRAEDTSVYYCVRQTNRGRLDDAFDIWGQGTMVTVSS
VL: DIQMTQSPSSLSAAVGDRVTISCRASQTISSYLNWYQQKPGEAPKLLIYAASTLQSGVPSRFGGSGSGTDFTLTISSLQPEDSATYYCQQNYDTLWTFGQGTKVEIKR
notes: as for B1
Kd (HBsAg AD serotype [1]): 40 nM
Kd (HBsAg AY serotype [2]): 5.3 nM
Virus neutralization EC50 [3]: 0.24 nM
IC50 [6]: 2 nM
IC50 [7]: 1.2 nM
IC50 [8]: 16 nM
IC50 [9]: 7.4 nM
IC50 [12]: 9.2 nM

B9: NOV3835 (antibody, human IgG1, kappa, V domains shown)
VH: QVQLVESGGGVVQPGRSLRLSCAASGFTFDRYGMHWVRQAPGKGLEWVAGIWHEGSHKYYADSLRGRFTISRDNAKNTLDLQLNRLRAEDTSVYYCVRQTNRGRLDDAFDIWGQGTMVTVSS
VL: DIQMTQSPSSLSAAVGDRVTISCRASQTISSYLNWYQQKPGEAPKLLIYAASTLQSGVPSRFGGSGSGTDFTLTISSLQPEDSATYYCQQNYDTLWTFGQGTKVEIKR
Virus neutralization EC50 [3]: 0.72 nM
